Experiments:
[1] = target: Chymotrypsin (CTRC) (bovine (pancreas), UniProt P00766 1-245); assay: bead-based affinity chromatography, fluorescence; PBS pH 7.4, room temperature, 1 h; EMSA 500 nM oligo + 200 µM protein, 5% agarose; bead assay with bead-immobilized protein, Alexa488 oligo 1-60 nM (lysozyme) o
[2] = target: Cytochrome c (equine (heart), UniProt P00004 2-105); assay: as above
[3] = target: Lysozyme C (Gallus gallus (Chicken), UniProt P00698 19-147); assay: as above
[4] = target: BSA (Bos taurus (Bovine), UniProt P02769 25-607); assay: EMSA; PBS pH 7.4, room temperature
[5] = target: Chymotrypsin (Bos taurus (Bovine), UniProt P00766;P00766;P00766 1-13;16-146;149-245); assay: pulldown; PBS pH 7.4, room temperature

Lysozyme C, sequence (P00698 19-147): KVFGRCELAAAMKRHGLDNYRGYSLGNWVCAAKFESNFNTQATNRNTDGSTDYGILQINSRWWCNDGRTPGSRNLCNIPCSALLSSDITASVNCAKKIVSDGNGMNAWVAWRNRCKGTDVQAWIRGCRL
Cytochrome c, sequence (P00004 2-105): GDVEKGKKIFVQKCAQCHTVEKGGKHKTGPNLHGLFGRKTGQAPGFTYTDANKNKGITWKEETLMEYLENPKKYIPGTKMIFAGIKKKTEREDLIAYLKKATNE
BSA, sequence (P02769 25-607): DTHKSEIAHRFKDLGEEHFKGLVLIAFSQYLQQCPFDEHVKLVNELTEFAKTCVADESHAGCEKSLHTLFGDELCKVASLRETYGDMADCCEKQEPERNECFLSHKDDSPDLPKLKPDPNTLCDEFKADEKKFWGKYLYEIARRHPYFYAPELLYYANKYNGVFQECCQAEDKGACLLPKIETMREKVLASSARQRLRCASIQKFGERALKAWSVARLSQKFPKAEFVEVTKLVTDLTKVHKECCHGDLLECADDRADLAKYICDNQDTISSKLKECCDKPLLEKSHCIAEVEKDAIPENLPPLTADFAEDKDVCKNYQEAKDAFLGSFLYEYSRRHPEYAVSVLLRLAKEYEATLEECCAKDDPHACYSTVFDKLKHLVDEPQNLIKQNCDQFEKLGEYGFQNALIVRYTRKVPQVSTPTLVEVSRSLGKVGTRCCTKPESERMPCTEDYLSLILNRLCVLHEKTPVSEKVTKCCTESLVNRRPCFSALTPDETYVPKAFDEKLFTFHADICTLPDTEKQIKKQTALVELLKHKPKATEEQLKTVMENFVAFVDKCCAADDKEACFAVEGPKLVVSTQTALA

Binder	Kd [1]	Kd [2]	Kd [3]	binding result [4]	Kd [5]
oligonucleotide 2, Alexa488 (ssDNA) DNA: CGGTCCTCAGATGTGATTCCATCCTTCTTTTGAGCAAACTACCTGTATAACGTAAGTCCGTGTGTGCGAA	3300 nM	1100 nM	8 nM	–	–
 (ssDNA) DNA: CGGTCCTCAGATGTGATTCCATCCTTCTTTTGAGCAAACTACCTGTATAACGTAAGTCCGTGTGTGCGAA	–	–	–	no binding	3300 nM
ATAAATTTAAGACATGAAAAAATAAATTTTTATTTTTTTACGTTTTTATT (ssDNA) [oligonucleotide 1, Alexa488]	1400 nM	1400 nM	14 nM	–	–
ATAAATTTAAGACATGAAAAAATAAATTTTTATTTTTTTACGTTTTTATT (ssDNA)	–	–	–	no binding	1400 nM
